Measurements taken from patent publication US20260216242A1, “ALPP-SPECIFIC VARIANT ANTIGEN BINDING MOLECULES” (ALMAC DISCOVERY LIMITED, priority 2022, published 2026).
Each block holds one molecule with its values, some of them ahead of it.

Target: T1, ALPI expressed on the surface of CHO cells (CHO-ALPI) (Homo sapiens, UniProt P09923)
T1 construct: expressed in transfected cells
T1 sequence (P09923 20-503 limits assumed): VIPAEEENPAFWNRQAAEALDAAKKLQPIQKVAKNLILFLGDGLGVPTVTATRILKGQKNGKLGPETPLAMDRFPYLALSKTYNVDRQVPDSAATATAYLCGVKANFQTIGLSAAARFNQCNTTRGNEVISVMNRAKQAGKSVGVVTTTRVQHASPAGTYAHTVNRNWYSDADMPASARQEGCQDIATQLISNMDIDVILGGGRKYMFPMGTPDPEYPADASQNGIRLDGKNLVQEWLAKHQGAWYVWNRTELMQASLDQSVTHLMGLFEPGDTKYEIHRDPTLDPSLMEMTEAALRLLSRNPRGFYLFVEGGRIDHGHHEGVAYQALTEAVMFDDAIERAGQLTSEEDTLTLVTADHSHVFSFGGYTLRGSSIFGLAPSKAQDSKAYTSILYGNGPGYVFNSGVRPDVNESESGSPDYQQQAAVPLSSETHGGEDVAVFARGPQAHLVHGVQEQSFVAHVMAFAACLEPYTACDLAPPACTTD
Experiment: Cell-surface binding by flow cytometry, CHO-ALPI
Details: for KDapp CHO-ALPI: VHH His proteins, up to 350 nM; for KDapp CHO-ALPI / binding to ALPI on CHO cells (in words): flow cytometry; for ALPI MFI as % of the ALPP MFI: VHH His at 350 nM; for binding to ALPI on CHO cells (in words): VHH proteins
Protocol: C-terminal His tagged VHH proteins were assessed for ALPP, ALPPL2, ALPI and ALPL cell-surface binding by flow cytometry. Binders encompassing different epitope bins were screened on CHO cells stably expressing ALPP, ALPPL2, ALPI or ALPL. High levels of cell-surface proteins expression were confirmed for each of the cell-lines by flow cytometry.
Cell surface binding of test agents to hALPP isoforms was characterized in four CHO-ALPP isoform stably transfected cell lines (CHO-ALPP, CHO-ALPPL2, CHO-ALPI and CHO-ALPL) and the resulting KDapp values determined. Adherent cells were detached from tissue culture flasks by incubating with 0.1% EDTA/PBS solution at 37° C. for ~10 minutes or until cells detached easily. Cells were re-suspended in ice-cold PBS/2% FCS in 15 ml tubes and centrifuged at 1700 rpm for 5 mins at 4° C. Supernatant was removed and the cell pellet re-suspended in PBS/2% FCS. A cell count was performed using a Chemometec Nucleocounter NC-202 and 2.5×10^5 cells were aliquoted per test sample into a 96 well plate. Cells were incubated with 100 μl of test agents at a range of concentrations, plus controls for 1 hr on ice. The sample plate was centrifuged at 1700 rpm for 5 mins at 4° C. The supernatant was removed, and a wash performed by re-suspending the cell pellets in 0.25 mL of ice-cold PBS/2% FCS using a multichannel pipette. Samples were again centrifuged at 1700 rpm for 5 min at 4° C. Supernatant was removed and two further washes performed as described. After the final wash and centrifugation step, excess liquid was removed by blotting the plate on tissue paper. Binding of VHH (His6 tagged) agents was determined by adding 100 μl of anti-x6His tag Ab (Abcam) per cell pellet sample as appropriate and incubating on ice for 30 mins. Wash steps were performed as described previously. Fitc-anti-mouse antibody (ThermoFisher) was used to detect binding of the VHH (His6 tagged) agents by incubating with the appropriate samples for 30 min on ice in the dark. Wash steps were performed as described previously. All cell pellets were finally re-suspended in […] of ice-cold PBS/2% FCS and left on ice in the dark prior to analysis on a Merck-Millipore Guava EasyCyte HT or Thermo Fisher Attune N×T flow cytometer.
VHH-hFc proteins were assessed for human ALPP, ALPPL2, ALPI and ALPL cell-surface binding by flow cytometry. Binders were screened on CHO cells stably expressing human ALPP, ALPPL2, ALPI or ALPL.
Cell surface binding of test agents to hALPP isoforms was characterized in four CHO-ALPP isoform transfectant cell lines (CHO-ALPP, CHO-ALPPL2, CHO-ALPI and CHO-ALPL) and the resulting KDapp values determined. Adherent cells were detached from tissue culture flasks by incubating with 0.1% EDTA/PBS solution at 37° C. for ~10 minutes or until cells detached easily. Cells were re-suspended in ice-cold PBS/2% FCS in 15 ml tubes and centrifuged at 1700 rpm for 5 mins at 4° C. Supernatant was removed and the cell pellet re-suspended in PBS/2% FCS. A cell count was performed using a Chemometec Nucleocounter NC-202 and 2.5×10^5 cells were aliquoted per test sample into a 96 well plate. Cells were incubated with 100 μl of test agents at a range of concentrations, plus controls for 1 hr on ice. The sample plate was centrifuged at 1700 rpm for 5 mins at 4° C. The supernatant was removed, and a wash performed by re-suspending the cell pellets in 0.25 mL of ice-cold PBS/2% FCS using a multichannel pipette. Samples were again centrifuged at 1700 rpm for 5 min at 4° C. Supernatant was removed and two further washes performed as described. After the final wash and centrifugation step, excess liquid was removed by blotting the plate on tissue paper. Binding of VHH-hFc agents was determined by adding 100 μl of Fitc-anti-human Ab (ThermoFisher) and incubating for 30 mins on ice in the dark. Wash steps were performed as described previously. […]

B1: A06: ALPP/ALPPL2 targeting VHH domain, SEQ ID NO: 17; tested C-terminally His-tagged (protein)
VHH: QVHLVESGGGLVQAGGSLRLSCAASGRTFLSMGWFRQAPGKEREFVAAISWTGGSTGYADSVKGRFTISRESDKETMYLQMNSLKPEDTAVYYCAARGDVYYGGDDATRYKYWGQGTQVTVSS
modifications: C-terminal His tag
notes: tested C-terminally His-tagged
- KDapp CHO-ALPI: No binding

B2: A05: ALPP/ALPPL2 targeting VHH domain, SEQ ID NO: 16; tested C-terminally His-tagged (protein)
VHH: QVQLVESGGGLVQAGASLTLSCAASGFTFNTRSIVWFRQAPGKEREAVSCISKVAGSTYYGDSVQGRFSSSTDNAKNTVSLQMNSLKPEDTAVYTCAASFAPNCYGWSVAANMEYWGEGTMVTVSS
modifications: C-terminal His tag
notes: as for B1
- KDapp CHO-ALPI: No binding

B3: D04: ALPP/ALPPL2 targeting VHH domain, SEQ ID NO: 26 (protein)
VHH: QVQLVESGGGLVQPGGSLRLSCAASESTFSINVMGWYRQAPGKQRELVATITSGDITNYADSVKGRFTISRDNAENTVYLRTNSLKPEDTAVYYCNARGEYHSGNEYDYWGQGTQVTVSS
- ALPI MFI as % of the ALPP MFI: 9.5%
- KDapp CHO-ALPI: Minimal
- binding to ALPI on CHO cells (in words): weak binding

B7: B01: ALPP/ALPPL2 targeting VHH domain, SEQ ID NO: 20 (protein)
VHH: QVQLVESGGGLVQAGGSLRLSCEVTRSPMPIDTMAWYRQAPGRQRELVAIISRSGSTNYADSVKGRFTISRNDTKSTMYKSTMYLKMNTLELEDTGVYYCNAVGLWNGAEYWGQGTQVTVSS
- KDapp CHO-ALPI: No binding

B9: F05: ALPP/ALPPL2 targeting VHH domain, SEQ ID NO: 34 (protein)
VHH: QVQLVESGGGLVQAGGSLRLSCAASGRAFGDYNIGWFRQAPGKEREFVARRTWDGSSTRYDDSVKGRFTVSIDNAKNTAYLQMNSLKTEDTAVYYCAAGRYSRVRGWEYDYWGQGTQVTVSS
- KDapp CHO-ALPI: No binding

B10: E06: ALPP/ALPPL2 targeting VHH domain, SEQ ID NO: 30 (protein)
VHH: QVHLVESGGGLVQAGGSLRLSCAASRRSFSEYAMGWFRQAPGKEREFVAAIGWSGVIEYADSVKGRFTISRDNAKDTVYLQMNSLKPEDTAVYYCAAGLGIRVVSQTPAYWGQGTQVTVSS
- KDapp CHO-ALPI: No binding

Results, then the molecule that gave them:

- KDapp CHO-ALPI: No binding
B4: D10: ALPP targeting VHH domain, SEQ ID NO: 28 (protein)
VHH: QVQLVESGGGLVQPGGSLRLSCAASGSIFSVNTMGWYRQAPGKQRDLVAVATSGGTIHYADSVKGRFTISRDNAKNTVYLQMNSLKPEDTAVYYCNLVVPYGMIAGDHDYWGQGTKVTVSS

- ALPI MFI as % of the ALPP MFI: 1.3%
- KDapp CHO-ALPI: Minimal
- binding to ALPI on CHO cells (in words): minimal binding
B5: F08: ALPP/ALPPL2 targeting VHH domain, SEQ ID NO: 35 (protein)
VHH: QVQLVESGGGSVQAGGSLRLSCAASGPSLSNYAMGWFRQAPGKEREFVAGISWGGGRTSYTDSVKGRFTISRDNAKNTVYLQMNNLKPEDTGVYYCAGRYGRGRNVEYEYDYWGQGTQVTVSS

- KDapp CHO-ALPI: No binding
B6: C07: ALPP/ALPPL2 targeting VHH domain, SEQ ID NO: 25 (protein)
VHH: QVQLVESGGGLVQAGESLRLACAASGTIFSGNAVGWYRQAPEKQREWVSSITDYGDTDYAEAVKGRFTISRDNAKNTVYLQMNSLKPEDTAVYYCYVYQRGESEEYWGQGTQVTVSS

- KDapp CHO-ALPI: No binding
B8: E10: ALPP/ALPPL2 targeting VHH domain, SEQ ID NO: 31 (protein)
VHH: QVQLVESGGGLVQAGGSLRLSCAVSGRALSDYNIGWFRQAPGKEREFVARKTWDGSSTRYDDSVKGRFTVSIEDAKNTAYLQMSSLKTEDTAVYYCAAGRYSRARGWEYDYWGQGTQVTVSS
